These results are taken from US10538556.

For data set [1], the system named is stapled (cyclic) beta2-beta3 loop peptide L44C, F56C (synthetic). The data set is described as follows: flow. The settings on record: 25 C, E. coli surface display, apparent Kd.
Data set [2] concerns Tat peptide (basic domain) (Human immunodeficiency virus 1). The settings on record: method of this Kd not stated.
Data set [3] has as its system TBP6.7 (U1A-derived TAR binding protein, crystallization variant) (Homo sapiens). The data set is described as follows: ITC.
Data set [4] deals with TBP6.7 P46A P46A (in TBP6.7 Y31H/Q36R) (Homo sapiens) (UniProt P09012). The data set is described as follows: ITC. The settings on record: 20 C.
Chain of TBP6.7 P46A P46A (in TBP6.7 Y31H/Q36R) (Homo sapiens) (P09012 whole entry, stated change not applied): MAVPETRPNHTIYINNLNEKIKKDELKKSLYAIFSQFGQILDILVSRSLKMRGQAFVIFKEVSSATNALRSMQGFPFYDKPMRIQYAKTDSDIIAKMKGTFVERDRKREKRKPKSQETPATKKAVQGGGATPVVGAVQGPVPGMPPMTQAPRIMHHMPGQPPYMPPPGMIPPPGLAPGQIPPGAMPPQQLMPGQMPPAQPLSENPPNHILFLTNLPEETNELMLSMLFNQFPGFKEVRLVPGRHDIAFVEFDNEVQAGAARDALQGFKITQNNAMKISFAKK
In data set [5] the target is TBP6.7 P51A P51A (in TBP6.7 Y31H/Q36R) (Homo sapiens) (UniProt P09012). The data set is described as follows: ITC. The settings on record: 20 C.
Chain of TBP6.7 P51A P51A (in TBP6.7 Y31H/Q36R) (Homo sapiens) (P09012 whole entry, stated change not applied): as above
Data set [6] deals with TBP6.7 Q48A Q48A (in TBP6.7 Y31H/Q36R) (Homo sapiens) (UniProt P09012). The data set is described as follows: ITC. The settings on record: 20 C.
Chain of TBP6.7 Q48A Q48A (in TBP6.7 Y31H/Q36R) (Homo sapiens) (P09012 other isoform, or with tags, fused parts or gaps Q48A Q48A Y31H Q36R): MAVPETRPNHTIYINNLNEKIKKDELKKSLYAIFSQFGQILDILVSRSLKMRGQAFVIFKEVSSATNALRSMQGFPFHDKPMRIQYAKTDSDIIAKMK
In data set [7] the target is TBP6.7 Q48T Q48T (in TBP6.7 Y31H/Q36R) (Homo sapiens) (UniProt P09012). The data set is described as follows: ITC. The settings on record: 20 C.
Chain of TBP6.7 Q48T Q48T (in TBP6.7 Y31H/Q36R) (Homo sapiens) (P09012 whole entry, stated change not applied): as the sequence (P09012 whole entry, stated change not applied) above
The target of data set [8] is TBP6.7 Q54A Q54A (in TBP6.7 Y31H/Q36R) (Homo sapiens) (UniProt P09012). The data set is described as follows: ITC. The settings on record: 20 C.
Chain of TBP6.7 Q54A Q54A (in TBP6.7 Y31H/Q36R) (Homo sapiens) (P09012 1-98 Y31H/Q36R/Q54A): as the sequence (P09012 other isoform, or with tags, fused parts or gaps Q48A Q48A Y31H Q36R) above, with Y31H, Q36R, Q54A, H78Y counted along it
The target of data set [9] is TBP6.7 R47A R47A (in TBP6.7 Y31H/Q36R) (Homo sapiens) (UniProt P09012). The data set is described as follows: ITC. The settings on record: 20 C; estimate, low c-value.
Chain of TBP6.7 R47A R47A (in TBP6.7 Y31H/Q36R) (Homo sapiens) (P09012 1-98 Y31H/Q36R/R47A): as the sequence (P09012 other isoform, or with tags, fused parts or gaps Q48A Q48A Y31H Q36R) above, with Y31H, Q36R, R47A, H78Y counted along it
Data set [10] deals with TBP6.7 R47K R47K (in TBP6.7 Y31H/Q36R) (Homo sapiens) (UniProt P09012). The data set can be described thus: ITC. The settings on record: 20 C.
Chain of TBP6.7 R47K R47K (in TBP6.7 Y31H/Q36R) (Homo sapiens) (P09012 1-98 Y31H/Q36R/R47K): as the sequence (P09012 other isoform, or with tags, fused parts or gaps Q48A Q48A Y31H Q36R) above, with Y31H, Q36R, R47K, H78Y counted along it
Data set [11] addresses TBP6.7 R49A R49A (in TBP6.7 Y31H/Q36R) (Homo sapiens) (UniProt P09012). The data set is described as follows: ITC. The settings on record: 20 C.
For data set [12], the target named is TBP6.7 R52A R52A (in TBP6.7 Y31H/Q36R) (Homo sapiens) (UniProt P09012). The data set can be described thus: ITC. The settings on record: 20 C.
Chain of TBP6.7 R52A R52A (in TBP6.7 Y31H/Q36R) (Homo sapiens) (P09012 1-98 Y31H/Q36R/R52A): as the sequence (P09012 other isoform, or with tags, fused parts or gaps Q48A Q48A Y31H Q36R) above, with Y31H, Q36R, R52A, H78Y counted along it
Data set [13] deals with TBP6.7 T50A T50A (in TBP6.7 Y31H/Q36R) (Homo sapiens) (UniProt P09012). The data set can be described thus: ITC. The settings on record: 20 C; error printed as XX.
Chain of TBP6.7 T50A T50A (in TBP6.7 Y31H/Q36R) (Homo sapiens) (P09012 whole entry, stated change not applied, the tested form may be a part): as the sequence (P09012 whole entry, stated change not applied) above
The test system of data set [14] is TBP6.7 deltaC truncated after residue 90 (in TBP6.7 Y31H/Q36R) (Homo sapiens). The data set is described as follows: ITC. The settings on record: 20 C.

Chain of TBP6.7 R49A R49A (in TBP6.7 Y31H/Q36R) (Homo sapiens) (P09012 whole entry, stated change not applied): as above

As to HIV-1 TAR RNA, the Kd in [1] is 80 nM; in [2] it was 260 nM; in [3] (20 C, n=0.99), 2.5 nM; in [3] (37 C, 0.05 M NaCl, 0.05 M KCl, 2 mM MgCl2, 2 mM beta-mercaptoethanol, pH 7.5, estimate of about 0.7 nM at 20 C in same example), 18.5 nM; in data set [4], 11.7 nM; in data set [5], 10.8 nM. For the same substance, the Kd in [6] was 5.5 nM; in [7], 3.6 nM; in data set [8] it was 7.2 nM; in data set [9], 1520 nM; in data set [10], 156 nM; in [11] it was 710 nM. Moreover, the Kd amounted to 290 nM in [12], 11.4 nM in [13] and 12 nM in data set [14].
